Where a chain is given by its changes, count along the chain named.

Results on two molecules are retold here after US20200109196A1 (MOGAM INSTITUTE FOR BIOMEDICAL RESEARCH, published 2020).

Experiment [1] concerns the target T1, recombinant human CEACAM-1/CD66a protein (R&D systems; Cat. No. 2244-CM) (human, UniProt P13688 35-428).
T1 construct: Bought protein; captured on anti-His (His1K) biosensors in the Octet assay, so it carries a His tag; also called HCCM1; recombinant CEACAM-1/CD66a protein
T1 sequence (looked up): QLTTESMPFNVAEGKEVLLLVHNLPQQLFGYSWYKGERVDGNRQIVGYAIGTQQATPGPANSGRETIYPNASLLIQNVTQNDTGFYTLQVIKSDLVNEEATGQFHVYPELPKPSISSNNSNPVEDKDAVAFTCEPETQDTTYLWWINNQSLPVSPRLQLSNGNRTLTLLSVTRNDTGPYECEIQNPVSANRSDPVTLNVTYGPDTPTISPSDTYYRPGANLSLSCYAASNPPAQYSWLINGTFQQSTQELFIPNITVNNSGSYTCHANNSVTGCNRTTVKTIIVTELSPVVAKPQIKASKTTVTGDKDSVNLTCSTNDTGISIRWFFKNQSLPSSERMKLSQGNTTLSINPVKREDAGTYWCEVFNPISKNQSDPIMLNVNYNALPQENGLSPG
The experiment is described as follows: Octet QKe biolayer interferometry, anti-His (HIS1K) biosensors, antibody 6.25-400 nM. As to the method:
The last well in each row was with a sample at the antibody concentration of 0 nM. Recombinant human CEACAM1 protein (R&D Systems; Cat. No. 2244-CM) was diluted to obtain a concentration of […], and dispensed into each well of another column at 200 μl/well.
As for the washing buffer, neutralization buffer and baseline buffer, Reagent/Kinetics buffer (10×) (Fortebio; Cat. No. 18-1092) were 1:10 diluted and dispensed into each well of a column in a row at 200 μl/well, and the regeneration buffer was dispensed into each well at 200 μl/well. Greiner 96-well plate was separately prepared, Reagent/Kinetics buffer (1×) was dispensed into each well of the number of biosensors to be used in a row at 200 μl/well, and Biosensors/Anti-His (His1K) (Fortebio; Cat. No. 18-5120) cassette was installed.
Background: Biolayer interferometry detects binding as a change in optical thickness at a sensor tip.

Another experiment deals with T2, HVISTA.
T2 construct: unrelated control antigen; also called human B7-H5/Gi24/VISTA protein (Sino Biological; Cat. No. 13482-H08H); not shown: the vendor's polyhistidine tag
The experiment is described as follows: ELISA on coated antigen (0.25 µg/ml), HRP anti-human IgG Fc, OD450. The source says:
(§1) All of the recombinant human CEACAM-1/CD66a protein (R&D systems; Cat No. 2244-CM, HCCM1), recombinant human CEACAM-5/CD66e protein (R&D systems; Cat. No. 4128-CM, HCCM5), recombinant human CEACAM-6/CD66c protein (R&D systems; Cat. No. 3934-CM, HCCM6), recombinant human CEACAM-3/CD66d protein (Sino Biological; Cat. No. 11933-H08H, HCCM3), human B7-H5/Gi24/VISTA protein (Sino Biological; Cat. No. 13482-H08H, HVISTA), recombinant human CEACAM-1/CD66a protein Bulk (R&D systems; Cat. No. 2244-CM, HCCM1 (bulk)), recombinant human CEACAM1-N domain-Kappa protein (Mogam, in-house production, HCCM1-N domain-kappa), and BSA protein (2.5 μg each) were dissolved in 10 ml of PBS, respectively, and dispensed into a 96-well plate at 100 μl/well, which was incubated at 4° C. overnight. Thereafter, each well was treated with 300 μl of 1% (v/v) bovine serum albumin, and incubated at 37° C. for 1 hour.
(§2) The diluted antibodies were dispensed into each well coated with each protein at 100 μl/well, and incubated at 37° C. for 1 hour. Then, each well was washed 3 times with a washing buffer prepared by diluting 10 μl of Tween 20 (Sigma-Aldrich; Cat. No. P9146) in 990 μl of PBS. Thereafter, 2 μl of HRP-conjugated human anti-IgG-Fc antibody (anti-human IgG Fc, Sigma Cat. No. A0170) was diluted in 10 ml of PBS, added to the wells at 100 μl/well, and incubated for 1 hour.
(§3) After completion of the reaction, the wells were washed three times with the washing buffer, and 100 μl of TMB solution was added to each well to induce color development. Then, 100 μl of 2 M H₂SO₄ was added to each well to stop the reaction, and the absorbance was measured at a wavelength of 450 nm.
Background: An ELISA detects its analyte on a solid surface through an enzyme-linked reagent.

Another experiment deals with T3, BSA (bovine, UniProt P02769).
T3 construct: blank antigen; also called BSA protein; bovine serum albumin
The description is as above.
Text: as §1, §2, §3

For another experiment, the target named is T4, mCCM1.
T4 construct: also called mouse CCM1; mouse CEACAM1/CD66a protein (Sino Biological); not shown: the vendor's polyhistidine tag
T4 chain: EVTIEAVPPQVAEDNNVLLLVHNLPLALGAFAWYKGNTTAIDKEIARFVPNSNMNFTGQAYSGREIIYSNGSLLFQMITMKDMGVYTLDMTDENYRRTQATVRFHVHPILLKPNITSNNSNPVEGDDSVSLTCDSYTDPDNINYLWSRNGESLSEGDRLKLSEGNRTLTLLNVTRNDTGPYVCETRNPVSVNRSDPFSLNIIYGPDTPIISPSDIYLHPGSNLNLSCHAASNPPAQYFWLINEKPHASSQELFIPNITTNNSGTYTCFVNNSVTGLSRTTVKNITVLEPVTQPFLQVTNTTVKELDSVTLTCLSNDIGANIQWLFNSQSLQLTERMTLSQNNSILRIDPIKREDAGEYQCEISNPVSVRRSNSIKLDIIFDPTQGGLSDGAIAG
Description: ELISA on coated antigen (0.25 µg/ml), HRP anti-human IgG Fab, OD450.
Text: All of the recombinant human CEACAM-1/CD66a protein (R&D systems; Cat. No. 2244-CM, HCCM1), recombinant human CEACAM-5/CD66e protein (R&D systems; Cat. No. 4128-CM, HCCM5), recombinant human CEACAM-6/CD66c protein (R&D systems; Cat. No. 3934-CM, HCCM6), recombinant human CEACAM-3/CD66d protein (Sino Biological; Cat. No. 11933-H08H, HCCM3), recombinant mouse PD-1 Fc chimeric protein (R&D systems; Cat. No. 1021-PD, mPD-1-Fc), recombinant CEACAM1-Fc (IgG4) protein (Mogam, in-house production, HCCM1-Fc), recombinant human CEACAM-1/CD66a protein Bulk (R&D systems; Cat. No. 2244-CM, HCCM1 (bulk)) and mouse CEACAM1/CD66a protein (Sino Biological; Cat. No. 50571-M08H, mouse CCM1) (2.5 μg each) were dissolved in 10 ml of PBS, respectively and dispensed into a 96-well plate (Nunc; Cat. No. 467679) at 100 μl/well, which was incubated overnight at 4° C. Thereafter, each well was treated with 300 μl of 1% (v/v) bovine serum albumin, which was incubated at 37° C. for 1 hour.
The diluted antibodies were dispensed into each well coated with each protein at 100 μl/well, which was incubated at 37° C. for 1 hour. Then, each well was washed 3 times with a washing buffer prepared by diluting 10 μl of Tween 20 (Sigma-Aldrich; Cat. No. P9146) in 990 μl of PBS. Thereafter, 2 μl of HRP-conjugated human anti-IgG-Fab antibody (anti-human IgG Fab; Sigma; Cat. No. A0293) was diluted in 10 ml of PBS, added to the wells at 100 μl/well, and incubated for 1 hour.
as §3

T2 sequence (chain, as listed by the source limits assumed): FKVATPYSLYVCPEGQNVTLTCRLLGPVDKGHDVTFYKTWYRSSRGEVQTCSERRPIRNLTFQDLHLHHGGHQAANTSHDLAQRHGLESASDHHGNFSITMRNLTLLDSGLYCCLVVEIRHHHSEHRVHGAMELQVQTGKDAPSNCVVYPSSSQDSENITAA
T3 sequence (P02769 25-607 limits assumed): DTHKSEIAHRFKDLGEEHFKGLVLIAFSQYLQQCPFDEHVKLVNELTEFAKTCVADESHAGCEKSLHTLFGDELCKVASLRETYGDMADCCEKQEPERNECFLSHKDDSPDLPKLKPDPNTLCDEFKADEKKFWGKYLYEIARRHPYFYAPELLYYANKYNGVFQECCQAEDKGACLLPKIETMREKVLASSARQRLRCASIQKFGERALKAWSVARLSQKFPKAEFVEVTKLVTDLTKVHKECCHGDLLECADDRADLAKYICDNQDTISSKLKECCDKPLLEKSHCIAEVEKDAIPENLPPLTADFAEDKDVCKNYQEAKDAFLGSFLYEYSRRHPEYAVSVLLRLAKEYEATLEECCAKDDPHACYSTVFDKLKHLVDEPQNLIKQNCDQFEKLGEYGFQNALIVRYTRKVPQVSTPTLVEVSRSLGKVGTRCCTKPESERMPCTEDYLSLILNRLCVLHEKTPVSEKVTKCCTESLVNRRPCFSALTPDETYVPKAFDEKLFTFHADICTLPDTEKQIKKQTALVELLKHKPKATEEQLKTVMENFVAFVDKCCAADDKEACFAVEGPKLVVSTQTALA

B1: 4R9_H4-n20HC+4R26LC (antibody, human IgG4 S228P, lambda, V domains shown)
VH: EVQLLESGGGLVQPGGSLRLSCAASGFNFSNYAMSWVRQAPGKGLEWVSVISHGGGSIYYADSVKGRLTISRDNSKNTLYLQMNSLRAEDTAVYYCARDPTKGYAPTFDYWGQGTLVTVSS
VL: QSVLTQPPSASGTPGQRVTISCSGSSSNIGNNYVSWYQQLPGTAPKLLIYADSKRLSGVPDRFSGSKSGTSASLAISGLRSEDEADYYCGAWDGRLNGYVFGGGTKLTVLG
In the case of B1, in experiment [1], the Kd (in general, the free concentration of one partner at which half of the binding sites on the other are occupied at equilibrium, for simple one-to-one binding) turned out to be 25.7 nM; the off-rate constant (koff) (as a rule, the rate constant with which the complex falls apart) is 0.000321 s⁻¹; the kon (usually the second-order rate constant of association) turned out to be 19000 M⁻¹ s⁻¹.

B2: C16 (antibody, human IgG4 S228P, lambda, V domains shown)
VH: EVQLLESGGGLVQPGGSLRLSCAASGFTFSNYSMSWVRQAPGKGLEWVSAISSDGGSKYYADSVKGRFTISRDNSKNTLYLQMNSLRAEDTAVYYCARDPRKHVDRYFDYWGQGTLVTVSS
VL: B1 VL with N31S, Y33T, S53N, K54N, L56P, A91T, G94Y, R95S, N97S, F101L
Regarding B2, the binding result with HVISTA, with BSA and with mCCM1 was “no binding (tested: 3 µg/ml (single concentration))” throughout.
